In the MegaScale stability set (Tsuboyama et al. 2023):

B1: HEEH_KT_rd6_3632 (parent)
chain: DAEELIELVERALKEGREIILLGVRITSEEAGKWFIEWIRRFL

Variants of: B1
Assay: folding stability dG (cDNA display proteolysis); higher = more stable
Conditions: PBS, room temperature

Variant	folding stability dG [kcal/mol]
DAEELYELVERALKEGREIILLGVRITSEEAGKWFIEWIRRFL [I6Y]	3.38
DAEELIELVERALKEGREIILLGVRITSEEAGKWVIEWIRRFL [F35V]	3.65
DAEELIELVERALKEGREIILLGVRITSEEAGKWAIEWIRRFL [F35A]	3.03
DAEELIELVERALKEGREIILLGVRITSEEAGKWFIEWIRRFD [L43D]	2.75
DAEELIELVERALKEGREIILLGVRITSEEAGVWFIEWIRRFL [K33V]	3.55
DAEELIELVERALKEGREIILLGVRVTSEEAGKWFIEWIRRFL [I26V]	3.29
DAEELIELVERALKEGREIILLGVRQTSEEAGKWFIEWIRRFL [I26Q]	3.21
DAEELIELVERALKEGREIILLGVRITSEEAGKWFIEWVRRFL [I39V]	3.62
DAEELIELVERALKEGREIILLGVRITSEEAGKWFIEWWRRFL [I39W]	3.23
DAEELIELVERALKEGREIILLGVRITSEEAGKWFIEWHRRFL [I39H]	2.73
DAEELIELVERALKEGREIILLGVRITSEEAGKWFIEWSRRFL [I39S]	2.66
DAEELIELVERALKEGREIILLGVRITSEEAGKWFIEWDRRFL [I39D]	2.51
DAEELIELVERALKEGREIQLLGVRITSEEAGKWFIEWIRRFL [I20Q]	3.12
DAEELIELVERALKEGREIYLLGVRITSEEAGKWFIEWIRRFL [I20Y]	3.27
DAEELIELVERALKEGREIVLLGVRITSEEAGKWFIEWIRRFL [I20V]	3.66
DAEELIELVERALKEGREIKLLGVRITSEEAGKWFIEWIRRFL [I20K]	3.01
DAEELIELVERALKEGREIILLGVRITSEEAGKWFIVWIRRFL [E37V]	3.79
DAEELIELVERALKEGREIILLGVRITSEEAGKWFIQWIRRFL [E37Q]	3.67
DAEELIELVERALKEGREIILLGVRITSEEAGKWFISWIRRFL [E37S]	3.52
DAEELIELVERALKEGREIILLGVRITSEEAGKWFILWIRRFL [E37L]	3.93

Variant	folding stability dG [kcal/mol]
DAEELIELVERALKEGREIILLGVRITSEEAGKAFIEWIRRFL [W34A]	4.01
DAEELIELVERALKEGREIILLGVRITSEEAGKRFIEWIRRFL [W34R]	3.98
DAEELIELVERALKEGREIILLGVRITSEEAGKQFIEWIRRFL [W34Q]	3.64
DAEELIELVERALKEGREIILLGVRITSEEAGKEFIEWIRRFL [W34E]	3.41
DAEELIELVERALKEGREIILLGVRITSEEAGKYFIEWIRRFL [W34Y]	3.43
DAEELIELVERALKEGREIILLGVLITSEEAGKWFIEWIRRFL [R25L]	3.81
DAEELIELVERALKEGREIILLGVPITSEEAGKWFIEWIRRFL [R25P]	3.14
DAEELIELVERALKEGREIILLGVIITSEEAGKWFIEWIRRFL [R25I]	3.67
DAEELIELVERALKEGREIILLGVMITSEEAGKWFIEWIRRFL [R25M]	3.66
DAEELIELVERALKEGREIILLGVKITSEEAGKWFIEWIRRFL [R25K]	3.57
DAEELIELVERALKEGREIILLGVYITSEEAGKWFIEWIRRFL [R25Y]	3.65
DAEELIELRERALKEGREIILLGVRITSEEAGKWFIEWIRRFL [V9R]	2.87
DAEELIELVERALKEGREIILLGVRITSEEAGKWFIEMIRRFL [W38M]	3.32
DAEELIELVERALKEGREIILLGVRITSEEAGKWFIERIRRFL [W38R]	2.89
DAEELIELVERALKEGREIILLGVRITSEEAGKWFIELIRRFL [W38L]	3.42
DAEELIELVERALKEGREIILLGNRITSEEAGKWFIEWIRRFL [V24N]	2.99
DAEELIELVERALKEGREIILLGFRITSEEAGKWFIEWIRRFL [V24F]	3.9
DAEELIELVERALKEGREIILLGSRITSEEAGKWFIEWIRRFL [V24S]	2.86
DAEELIELVERALKEGREIIELGVRITSEEAGKWFIEWIRRFL [L21E]	3.06
DAEELIELVERALKEGREIIHLGVRITSEEAGKWFIEWIRRFL [L21H]	2.92

Variant	folding stability dG [kcal/mol]
DAEELIELVERALKEGREIIKLGVRITSEEAGKWFIEWIRRFL [L21K]	2.98
DAEELIELVERALKEGREIIFLGVRITSEEAGKWFIEWIRRFL [L21F]	3.49
DAEELIELVERALKEGREIILLGVRITSEQAGKWFIEWIRRFL [E30Q]	3.77
DAEELIELVERALKEGREIILLGVRITSENAGKWFIEWIRRFL [E30N]	3.56
DAEELIELVERALKEGREIILLGVRITSEFAGKWFIEWIRRFL [E30F]	3.76
DAEELIELVERALKEGREIILLGVRITYEEAGKWFIEWIRRFL [S28Y]	3.47
DAEELIELVERALKEGREIILLGVRITPEEAGKWFIEWIRRFL [S28P]	3.5
DAEELIELVERALKEGREIILLGVRITCEEAGKWFIEWIRRFL [S28C]	3.83
DAEELIELVERALKEGREIILLGVRITHEEAGKWFIEWIRRFL [S28H]	3.36
DAEELIELVERALKEGREIILLGVRITSEEAIKWFIEWIRRFL [G32I]	4.12
DAEELIELVEVALKEGREIILLGVRITSEEAGKWFIEWIRRFL [R11V]	3.37
DAEELIELVEEALKEGREIILLGVRITSEEAGKWFIEWIRRFL [R11E]	3.38
DAEELIEDVERALKEGREIILLGVRITSEEAGKWFIEWIRRFL [L8D]	2.92
DAEELIEHVERALKEGREIILLGVRITSEEAGKWFIEWIRRFL [L8H]	3.26
DAEELIEAVERALKEGREIILLGVRITSEEAGKWFIEWIRRFL [L8A]	3.47
DAEELIELVERALKEGREIILLGVRITSEEAGKWFIEWIRRYL [F42Y]	3.72
DAEELIELVERALKEGREIILLGVRITSEEAGKWFIEWIRRSL [F42S]	3.15
DAEELIELVERALKEGREAILLGVRITSEEAGKWFIEWIRRFL [I19A]	3.18
DAEELIELVERALKEGREQILLGVRITSEEAGKWFIEWIRRFL [I19Q]	2.91
